Values belong to the molecule of their own block, whether it stands above or below them. Primed or numbered codes have the meaning given here. Ends that are not written are not given here. DBCO′ = not defined here
What was measured:
Factor XIIIa [1] = biological target: T1, Factor XIIIa (Homo sapiens, UniProt P00488); experiment: Crosslinking of D domain peptides to a glutamine substrate derived from α-2 plasmin inhibitor, catalyzed by FXIIIa, RP-HPLC; assay type: biochemical
T1 construct: purchased Fibrogammin®
T1 sequence (P00488 39-732 limits assumed): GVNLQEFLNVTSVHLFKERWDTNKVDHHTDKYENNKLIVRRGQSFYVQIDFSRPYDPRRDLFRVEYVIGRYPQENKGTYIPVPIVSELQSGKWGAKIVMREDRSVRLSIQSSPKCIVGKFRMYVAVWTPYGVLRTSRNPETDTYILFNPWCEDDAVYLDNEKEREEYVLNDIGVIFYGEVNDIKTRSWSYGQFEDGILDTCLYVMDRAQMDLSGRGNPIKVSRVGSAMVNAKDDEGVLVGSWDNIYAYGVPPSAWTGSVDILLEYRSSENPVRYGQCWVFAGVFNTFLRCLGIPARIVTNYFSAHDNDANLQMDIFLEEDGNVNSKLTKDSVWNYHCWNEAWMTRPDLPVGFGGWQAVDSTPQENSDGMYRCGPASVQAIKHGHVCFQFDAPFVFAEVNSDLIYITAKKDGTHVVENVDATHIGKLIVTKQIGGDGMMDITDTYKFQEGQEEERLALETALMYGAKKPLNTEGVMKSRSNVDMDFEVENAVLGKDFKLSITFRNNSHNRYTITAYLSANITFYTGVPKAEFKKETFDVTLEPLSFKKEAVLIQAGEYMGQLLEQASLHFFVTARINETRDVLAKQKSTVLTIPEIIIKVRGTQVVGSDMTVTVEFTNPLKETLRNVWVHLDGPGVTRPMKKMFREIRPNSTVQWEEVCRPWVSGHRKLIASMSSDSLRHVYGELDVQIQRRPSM
Text: Using solid phase peptide synthesis, the isolated peptide sequence of the D domain of human IGF-I (SEQ ID NO: 1) and mouse IGF-I (SEQ ID NO: 6) were synthesized and purified using preparative HPLC to achieve >95% purity. Additionally, a collection of N-terminally truncated versions of both sequences were created, in order to test if 7 or less amino acids are sufficient to be recognized by Factor XIIIa. According to a trypsin digest of coupled IGF-I, only K68 is modified and therefore, a reduction of the sequence to the last 3 amino acids could be possible. The truncated versions were manufactured and purified accordingly. Lyophilized peptides were dissolved in Tris buffer (20 mM Tris-HCl, 150 mM NaCl, pH 7.6) and reacted with a glutamine substrate (SEQ ID NO: 13, derived from α-2 plasmin inhibitor) in presence of 0.1 M calcium chloride and 10 U/ml Factor XIIIa (Fibrogammin®, activated with 0.02 U/ml thrombin). Following 30 minutes incubation at 37° C., the coupling reaction was stopped and the amount of crosslinked peptide analyzed using analytical RP-HPLC. The crosslinking ratios using equimolar amounts of both peptides (D domain and glutamine acceptor) are depicted in Table 1.

fibronectin [2] = experiment: Immobilization of dye-D domain conjugate on cell derived, isolated ECM / fibronectin using FXIIIa; assay type: biochemical; details: ECM from NIH3T3 fibroblasts (FIG. 2)
Text: As proof of concept (for covalent attachment of a bioactive factor to extracellular matrix (ECM), we modified the D domain of IGF-I (SEQ ID NO: 1) with an dibenzocyclooctyne group (DBCO) at the N-terminus (SEQ: DBCO-PLKPAKSA), followed by coupling of a small molecule (fluorescent dye Azide Fluor 488) onto cell derived, isolated ECM. The ECM was produced by NIH3T3 fibroblasts and on day 6 decellularized and washed to remove cell debris and adsorbed proteins. Taking advantage of the intrinsic property of fibronectin, representing a glutamine donor for Factor XIII, we immobilized the fluorescent dye-D domain conjugate on the N-terminus of fibronectin without impairment of ECM structure and integrity.
FIG. 2: Immobilization of the covalent conjugate of the D domain (SEQ ID NO: 1) and the small molecule Azide Fluor 488 on fibronectin (isolated from human plasma) catalyzed by transglutaminase. The conjugates coupled to fibronectin in absence (lane #1) and presence (lane #2) of Factor XIIIa were transferred to a 5% SDS-PAGE gel and analyzed for fluorescence.
FIG. 3: Confocal laser scanning microscopy images of the Azide Fluor 488-D domain conjugate immobilized on isolated ECM in presence (panel 1) or absence (panel 2) of factor XIIIa. The green fluorescence of the immobilized dye-peptide conjugate co-localized with fibronectin (red fluorescence).

Factor XIIIa [3] = biological target: T1, Factor XIIIa; experiment: Crosslinking of D domain peptides to a glutamine substrate derived from α-2 plasmin inhibitor, catalyzed by FXIIIa, RP-HPLC; assay type: biochemical; remark: listed apart in the source
fibronectin [4] = experiment: Immobilization of eGFP modified with the D domain on plasma fibronectin and ECM using factor XIIIa; assay type: biochemical
Description: The same coupling reaction as described for IGF-I (Example 3) was also performed with enhanced green fluorescent protein (eGFP), previously modified with the D domain of human IGF-I (SEQ ID NO: 1), and immobilized using factor XIIIa (FIGS. 8A-8B). […] FIGS. 8A-8B: (8A) Western Blot of enhanced green fluorescent protein modified with the D domain (SEQ ID NO: 1) (eGFP-D domain, lane #1) after incubation with fibronectin in absence (lane #2) and presence (lane #3) of Factor XIIIa. (8B) Confocal laser scanning microscopy images of eGFP modified with the D domain (SEQ ID NO: 1) and immobilized on isolated ECM in presence (panel 1) or absence (panel 2) of factor XIIIa. The immobilized eGFP was visualized with a monoclonal eGFP antibody (green) und co-localized with fibronectin (red).

[5] = biological target: T2, D domain of human IGF-I (SEQ ID NO: 1)
T2 chain: PLKPAKSA

[6] = biological target: T3, N-terminally truncated D domain of mouse IGF-I, SEQ ID NO: 7
T3 chain: LKPTKAA

[7] = biological target: T4, N-terminally truncated D domain of human IGF-I, SEQ ID NO: 2
T4 chain: LKPAKSA

[8] = biological target: T5, N-terminally truncated D domain of mouse IGF-I, SEQ ID NO: 8
T5 chain: KPTKAA

SEQ ID NO: 10 (-AS 67) = biological target: T6, SEQ ID NO: 10 (-AS 67)
T6 chain: KAA

SEQ ID NO: 5 (-AS 67) = biological target: T7, SEQ ID NO: 5 (-AS 67)
T7 chain: KSA

[9] = biological target: T8, N-terminally truncated D domain of mouse IGF-I, SEQ ID NO: 10
T8 chain: TKAA

[10] = biological target: T9, N-terminally truncated D domain of human IGF-I, SEQ ID NO: 4
T9 chain: PAKSA

[11] = biological target: T10, N-terminally truncated D domain of mouse IGF-I, SEQ ID NO: 9
T10 chain: PTKAA

[12] = biological target: T11, N-terminally truncated D domain of human IGF-I, SEQ ID NO: 3
T11 chain: KPAKSA

[13] = biological target: T12, N-terminally truncated D domain of human IGF-I, SEQ ID NO: 5
T12 chain: AKSA

[14] = biological target: T13, D domain of mouse IGF-I (SEQ ID NO: 6)
T13 chain: PLKPTKAA

[15] = equimolar peptide and glutamine substrate, incubation for 30 minutes with 10 U/ml FXIIIa, 37° C.

Molecule: AKSA (listed as Homo sapiens) [SEQ ID NO: 5, N-terminally truncated human D domain]
Crosslinking Efficacy (1:1 molar ratio)* (Factor XIIIa [1]; [15]): 49.52 ± 1.29

Molecule: Alexa488-D domain: DBCO-PLKPAKSA coupled with fluorescent dye Azide Fluor 488 ({Azide Fluor 488-DBCO′}-PLKPAKSA)
immobilization on ECM (fibronectin [2]): high efficacy

Molecule: KSA (listed as Homo sapiens) [SEQ ID NO: 5 (−AS 67)]
Crosslinking Efficacy (1:1 molar ratio)* (Factor XIIIa [1]; [15]): 21.40 ± 1.96

Molecule: LKPAKSA (listed as Homo sapiens) [SEQ ID NO: 2, N-terminally truncated human D domain]
Crosslinking Efficacy (1:1 molar ratio)* (Factor XIIIa [1]; [15]): 72.45 ± 1.57

Molecule: PAKSA (listed as Homo sapiens) [SEQ ID NO: 4, N-terminally truncated human D domain]
Crosslinking Efficacy (1:1 molar ratio)* (Factor XIIIa [1]; [15]): 44.18 ± 3.23

Molecule: PTKAA (listed as Mus musculus) [SEQ ID NO: 9, N-terminally truncated mouse D domain]
Crosslinking Efficacy (1:1 molar ratio)* (Factor XIIIa [1]; [15]): 33.69 ± 1.41

Molecule: TKAA (listed as Mus musculus) [SEQ ID NO: 10, N-terminally truncated mouse D domain]
Crosslinking Efficacy (1:1 molar ratio)* (Factor XIIIa [1]; [15]): 39.26 ± 4.07

Molecule: eGFP-D domain conjugate: enhanced green fluorescent protein modified with the D domain of human IGF-I (SEQ ID NO: 1) (PLKPAKSA; also: conjugated to eGFP)
conjugation to plasma fibronectin (western blot) (fibronectin [4]; factor XIIIa (FIG. 8A)): effective conjugation
immobilization of the modified protein on ECM (fibronectin [4]; factor XIIIa (FIG. 8B)): confirmed

B1: human Factor XIIIa (Fibrogammin, activated with 0.02 U/ml thrombin) (protein)
chain: T1 sequence (P00488 39-732 limits assumed)
Crosslinking Efficacy (1:1 molar ratio) to the glutamine substrate derived from α2PI, 30 min, 10 U/ml FXIIIa, RP-HPLC [5]: 82.9%
conversion in the time course of the coupling reaction between the Q peptide and the D domain [5]: achieving about 80% conversion within 10 minutes
Crosslinking Efficacy (1:1 molar ratio) to the glutamine substrate derived from α2PI, 30 min, 10 U/ml FXIIIa, RP-HPLC [6]: 69.4%
Crosslinking Efficacy (1:1 molar ratio) to the glutamine substrate derived from α2PI, 30 min, 10 U/ml FXIIIa, RP-HPLC [7]: 72.5%
Crosslinking Efficacy (1:1 molar ratio) to the glutamine substrate derived from α2PI, 30 min, 10 U/ml FXIIIa, RP-HPLC [8]: 55.7%
Crosslinking Efficacy (1:1 molar ratio) to the glutamine substrate derived from α2PI, 30 min, 10 U/ml FXIIIa, RP-HPLC (SEQ ID NO: 10 (-AS 67)): 24.7%
Crosslinking Efficacy (1:1 molar ratio) to the glutamine substrate derived from α2PI, 30 min, 10 U/ml FXIIIa, RP-HPLC (SEQ ID NO: 5 (-AS 67)): 21.4%
Crosslinking Efficacy (1:1 molar ratio) to the glutamine substrate derived from α2PI, 30 min, 10 U/ml FXIIIa, RP-HPLC [9]: 39.3%
Crosslinking Efficacy (1:1 molar ratio) to the glutamine substrate derived from α2PI, 30 min, 10 U/ml FXIIIa, RP-HPLC [10]: 44.2%
Crosslinking Efficacy (1:1 molar ratio) to the glutamine substrate derived from α2PI, 30 min, 10 U/ml FXIIIa, RP-HPLC [11]: 33.7%
Crosslinking Efficacy (1:1 molar ratio) to the glutamine substrate derived from α2PI, 30 min, 10 U/ml FXIIIa, RP-HPLC [12]: 58.4%
Crosslinking Efficacy (1:1 molar ratio) to the glutamine substrate derived from α2PI, 30 min, 10 U/ml FXIIIa, RP-HPLC [13]: 49.5%
Crosslinking Efficacy (1:1 molar ratio) to the glutamine substrate derived from α2PI, 30 min, 10 U/ml FXIIIa, RP-HPLC [14]: 84.2%

Continued, values first:

Crosslinking Efficacy (1:1 molar ratio)* (Factor XIIIa [1]; [15]): 24.68 ± 3.42
Molecule: KAA (listed as Mus musculus) [SEQ ID NO: 10 (−AS 67)]

Crosslinking Efficacy (1:1 molar ratio)* (Factor XIIIa [1]; [15]): 58.37 ± 2.10
Molecule: KPAKSA (listed as Homo sapiens) [SEQ ID NO: 3, N-terminally truncated human D domain]

Crosslinking Efficacy (1:1 molar ratio)* (Factor XIIIa [1]; [15]): 55.68 ± 3.25
Molecule: KPTKAA (listed as Mus musculus) [SEQ ID NO: 8, N-terminally truncated mouse D domain]

Crosslinking Efficacy (1:1 molar ratio)* (Factor XIIIa [1]; [15]): 69.42 ± 8.62
Molecule: LKPTKAA (listed as Mus musculus) [SEQ ID NO: 7, N-terminally truncated mouse D domain]

Crosslinking Efficacy (1:1 molar ratio)* (Factor XIIIa [3]; molar excess of the glutamine sequence 0.5): 44.48 ± 2.45
Crosslinking Efficacy (1:1 molar ratio)* (Factor XIIIa [3]; molar excess of the glutamine sequence 2.5): 84.67 ± 2.02
Crosslinking Efficacy (1:1 molar ratio)* (Factor XIIIa [3]; molar excess of the glutamine sequence 3.75): 87.53 ± 5.33
Crosslinking Efficacy (1:1 molar ratio)* (Factor XIIIa [3]; molar excess of the glutamine sequence 5): 84.91 ± 6.23
Crosslinking Efficacy (1:1 molar ratio)* (Factor XIIIa [3]; molar excess of the glutamine sequence 10): 88.67 ± 6.52
conversion, time course of the coupling reaction with the Q peptide (Factor XIIIa [3]; within 10 minutes (FIG. 1)): about 80%
Crosslinking Efficacy (1:1 molar ratio)* (Factor XIIIa [1]; [15]): 82.94 ± 0.79
Crosslinking Efficacy (1:1 molar ratio)* (Factor XIIIa [1]; molar excess of the glutamine sequence 1): 81.06 ± 5.13
Molecule: PLKPAKSA (listed as Homo sapiens) [SEQ ID NO: 1, isolated D domain of human IGF-I]

Crosslinking Efficacy (1:1 molar ratio)* (Factor XIIIa [1]; [15]): 84.16 ± 7.76
Molecule: PLKPTKAA (listed as Mus musculus) [SEQ ID NO: 6, isolated D domain of mouse IGF-I]

Reference: patent publication US20250115655A1, “PHARMACEUTICALS AND DEVICES FOR THE COVALENT IMMOBILIZATION TO THE EXTRACELLULAR MATRIX BY TRANSGLUTAMINASE” (JULIUS-MAXIMILIANS-UNIVERSITÄT WÜRZBURG, priority 2017, published 2025)
